Earlier results, collected in patent US11414673B2, “Hypersensitive ABA receptors having modified PP2C-binding interfaces” (THE REGENTS OF THE UNIVERSITY OF CALIFORNIA, priority 2017, dated 2022).

System: ABA responses
Settings: Pizzio et al., Plant Physiol. 163, 441-455 (2013)

B1: PYL4^A194T: PYL4 ABA receptor with A194T mutation in its carboxyl terminus, described by Pizzio et al. (protein, UniProt O80920 1-207, looked up, variant A194T)
Abscisic acid receptor PYL4: MLAVHRPSSAVSDGDSVQIPMMIASFQKRFPSLSRDSTAARFHTHEVGPNQCCSAVIQEISAPISTVWSVVRRFDNPQAYKHFLKSCSVIGGDGDNVGSLRQVHVVSGLPAASSTERLDILDDERHVISFSVVGGDHRLSNYRSVTTLHPSPISGTVVVESYVVDVPPGNTKEETCDFVDVIVRCNLQSLAKITENTAAESKKKMSL
In the case of B1, the “ABA concentration needed to elicit measured ABA responses, in comparison to wild type PYL4” value is given as “requires lower concentrations of ABA”.
